Measurements from patent US20240018502A1.

biological target: plasma purified human complement protein C3 (human) (UniProt P01024); experiment: cell-based or functional assay
Sequence (P01024 23-667, chain 1 of 2): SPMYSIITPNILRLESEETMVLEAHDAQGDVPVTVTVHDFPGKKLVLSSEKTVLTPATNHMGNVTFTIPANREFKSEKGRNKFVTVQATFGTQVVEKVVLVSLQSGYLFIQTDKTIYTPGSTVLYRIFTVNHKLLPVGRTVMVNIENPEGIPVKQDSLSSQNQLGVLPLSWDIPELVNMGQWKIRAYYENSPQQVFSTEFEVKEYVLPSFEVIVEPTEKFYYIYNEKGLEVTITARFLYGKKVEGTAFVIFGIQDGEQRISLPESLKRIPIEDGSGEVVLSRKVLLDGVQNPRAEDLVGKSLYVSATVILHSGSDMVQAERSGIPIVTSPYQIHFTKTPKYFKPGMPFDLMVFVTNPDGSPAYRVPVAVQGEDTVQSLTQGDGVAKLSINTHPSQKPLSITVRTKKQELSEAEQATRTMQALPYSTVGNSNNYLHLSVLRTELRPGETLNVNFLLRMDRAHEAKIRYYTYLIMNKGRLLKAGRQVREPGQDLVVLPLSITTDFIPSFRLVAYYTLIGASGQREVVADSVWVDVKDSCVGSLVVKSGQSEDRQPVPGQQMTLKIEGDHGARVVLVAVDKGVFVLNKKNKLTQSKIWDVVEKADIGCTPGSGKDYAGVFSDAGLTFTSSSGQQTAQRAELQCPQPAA
Sequence (P01024 672-1663, chain 2 of 2): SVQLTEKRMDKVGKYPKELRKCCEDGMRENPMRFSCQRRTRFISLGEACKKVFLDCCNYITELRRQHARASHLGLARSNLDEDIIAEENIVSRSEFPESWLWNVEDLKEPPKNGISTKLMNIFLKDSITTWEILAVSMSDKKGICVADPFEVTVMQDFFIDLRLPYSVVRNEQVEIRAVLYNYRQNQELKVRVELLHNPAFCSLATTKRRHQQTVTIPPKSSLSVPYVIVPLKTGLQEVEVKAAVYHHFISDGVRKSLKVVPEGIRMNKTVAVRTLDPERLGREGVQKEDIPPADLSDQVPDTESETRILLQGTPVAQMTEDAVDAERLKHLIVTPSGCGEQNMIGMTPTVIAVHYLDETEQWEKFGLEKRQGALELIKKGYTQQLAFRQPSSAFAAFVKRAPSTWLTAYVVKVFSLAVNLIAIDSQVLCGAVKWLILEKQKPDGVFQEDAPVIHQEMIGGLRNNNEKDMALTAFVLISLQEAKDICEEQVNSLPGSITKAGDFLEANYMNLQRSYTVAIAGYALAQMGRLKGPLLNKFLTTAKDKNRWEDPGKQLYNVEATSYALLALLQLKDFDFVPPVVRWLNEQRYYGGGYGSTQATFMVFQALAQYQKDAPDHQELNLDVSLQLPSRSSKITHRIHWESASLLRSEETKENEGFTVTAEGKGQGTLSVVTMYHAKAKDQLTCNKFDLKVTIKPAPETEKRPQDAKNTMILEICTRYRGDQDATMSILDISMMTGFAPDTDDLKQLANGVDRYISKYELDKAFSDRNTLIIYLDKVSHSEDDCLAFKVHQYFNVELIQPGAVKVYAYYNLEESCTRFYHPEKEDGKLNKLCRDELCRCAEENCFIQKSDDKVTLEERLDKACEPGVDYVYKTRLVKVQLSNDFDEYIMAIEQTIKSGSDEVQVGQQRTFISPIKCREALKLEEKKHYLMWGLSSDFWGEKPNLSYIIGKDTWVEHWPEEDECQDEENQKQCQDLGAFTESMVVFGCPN

EC50 of hC3 cleavage | EC50 hC3 cleavage | Binder
2.23 nM |  | MTSP-1 Q38H/I41A/D60bV/F60eR/Y60gW/D96I/ins97aN/F97Y/T98G/F99L/C122S/G151N/Q175L/Q192D (enzyme) VVGGTDADEGEWPWQVSLHALGHGHACGASLISPNWLVSAAHCYIDVRGRRWSDPTQWTAFLGLHDQSQRSAPGVQERRLKRIISHPFFNIYNGLDYDIALLELEKPAEYSSMVRPISLPDASHVFPAGKAIWVTGWGHTQYGGTNALILQKGEIRVINQTTCENLLPQLITPRMMCVGFLSGGVDSCDGDSGGPLSSVEADGRIFQAGVVSWGDGCAQRNKPGVYTRLPLFRDWIKENTGV
2.07 nM |  | MTSP-1 Q38H/I41A/D60bV/F60eR/Y60gW/D96S/ins97aR/F97A/T98S/F99L/C122S/G151N/Q175L/Q192T (enzyme) VVGGTDADEGEWPWQVSLHALGHGHACGASLISPNWLVSAAHCYIDVRGRRWSDPTQWTAFLGLHDQSQRSAPGVQERRLKRIISHPFFNSARSLDYDIALLELEKPAEYSSMVRPISLPDASHVFPAGKAIWVTGWGHTQYGGTNALILQKGEIRVINQTTCENLLPQLITPRMMCVGFLSGGVDSCTGDSGGPLSSVEADGRIFQAGVVSWGDGCAQRNKPGVYTRLPLFRDWIKENTGV
4.62 nM |  | MTSP-1 Q38H/I41S/D60bT/F60eS/Y60gW/D96Y/ins97aV/F97E/T98G/F99L/C122S/G151H/Q175L/Q192D (enzyme) VVGGTDADEGEWPWQVSLHALGHGHSCGASLISPNWLVSAAHCYIDTRGSRWSDPTQWTAFLGLHDQSQRSAPGVQERRLKRIISHPFFNYEVGLDYDIALLELEKPAEYSSMVRPISLPDASHVFPAGKAIWVTGWGHTQYGGTHALILQKGEIRVINQTTCENLLPQLITPRMMCVGFLSGGVDSCDGDSGGPLSSVEADGRIFQAGVVSWGDGCAQRNKPGVYTRLPLFRDWIKENTGV
12.9 nM |  | MTSP-1 Q38H/I41S/D60bS/F60eQ/Y60gF/ins97aV/F97D/T98P/F99L/C122S/H143R/G151N/Q175L/Q192T (enzyme) VVGGTDADEGEWPWQVSLHALGHGHSCGASLISPNWLVSAAHCYIDSRGQRFSDPTQWTAFLGLHDQSQRSAPGVQERRLKRIISHPFFNDDVPLDYDIALLELEKPAEYSSMVRPISLPDASHVFPAGKAIWVTGWGRTQYGGTNALILQKGEIRVINQTTCENLLPQLITPRMMCVGFLSGGVDSCTGDSGGPLSSVEADGRIFQAGVVSWGDGCAQRNKPGVYTRLPLFRDWIKENTGV
4.36 nM |  | MTSP-1 Q38H/I41A/D60bV/F60eR/Y60gW/D96Y/ins97aI/F97E/T98N/F99M/C122S/G151N/Q175L/Q192V (enzyme) VVGGTDADEGEWPWQVSLHALGHGHACGASLISPNWLVSAAHCYIDVRGRRWSDPTQWTAFLGLHDQSQRSAPGVQERRLKRIISHPFFNYEINMDYDIALLELEKPAEYSSMVRPISLPDASHVFPAGKAIWVTGWGHTQYGGTNALILQKGEIRVINQTTCENLLPQLITPRMMCVGFLSGGVDSCVGDSGGPLSSVEADGRIFQAGVVSWGDGCAQRNKPGVYTRLPLFRDWIKENTGV
4.58 nM |  | MTSP-1 Q38H/I41S/D60bF/F60eQ/Y60gF/ins97aV/F97D/T98P/F99L/C122S/H143A/G151N/Q175L/Q192A (enzyme) VVGGTDADEGEWPWQVSLHALGHGHSCGASLISPNWLVSAAHCYIDFRGQRFSDPTQWTAFLGLHDQSQRSAPGVQERRLKRIISHPFFNDDVPLDYDIALLELEKPAEYSSMVRPISLPDASHVFPAGKAIWVTGWGATQYGGTNALILQKGEIRVINQTTCENLLPQLITPRMMCVGFLSGGVDSCAGDSGGPLSSVEADGRIFQAGVVSWGDGCAQRNKPGVYTRLPLFRDWIKENTGV
9.75 nM |  | MTSP-1 Q38H/I41T/D60bV/F60eR/Y60gW/D96I/ins97aN/F97Y/T98G/F99L/C122S/G151N/Q175L/Q192D (enzyme) VVGGTDADEGEWPWQVSLHALGHGHTCGASLISPNWLVSAAHCYIDVRGRRWSDPTQWTAFLGLHDQSQRSAPGVQERRLKRIISHPFFNIYNGLDYDIALLELEKPAEYSSMVRPISLPDASHVFPAGKAIWVTGWGHTQYGGTNALILQKGEIRVINQTTCENLLPQLITPRMMCVGFLSGGVDSCDGDSGGPLSSVEADGRIFQAGVVSWGDGCAQRNKPGVYTRLPLFRDWIKENTGV
7.09 nM |  | MTSP-1 Q38H/I41S/D60bT/F60eS/Y60gW/D96K/ins97aA/F97D/T98P/F99L/C122S/G151H/Q175L/Q192D (enzyme) VVGGTDADEGEWPWQVSLHALGHGHSCGASLISPNWLVSAAHCYIDTRGSRWSDPTQWTAFLGLHDQSQRSAPGVQERRLKRIISHPFFNKDAPLDYDIALLELEKPAEYSSMVRPISLPDASHVFPAGKAIWVTGWGHTQYGGTHALILQKGEIRVINQTTCENLLPQLITPRMMCVGFLSGGVDSCDGDSGGPLSSVEADGRIFQAGVVSWGDGCAQRNKPGVYTRLPLFRDWIKENTGV
1.51 nM |  | MTSP-1 Q38H/I41A/D60bV/F60eR/Y60gW/D96P/ins97aN/F97W/T98G/F99L/C122S/G151N/Q175L/Q192E (enzyme) VVGGTDADEGEWPWQVSLHALGHGHACGASLISPNWLVSAAHCYIDVRGRRWSDPTQWTAFLGLHDQSQRSAPGVQERRLKRIISHPFFNPWNGLDYDIALLELEKPAEYSSMVRPISLPDASHVFPAGKAIWVTGWGHTQYGGTNALILQKGEIRVINQTTCENLLPQLITPRMMCVGFLSGGVDSCEGDSGGPLSSVEADGRIFQAGVVSWGDGCAQRNKPGVYTRLPLFRDWIKENTGV
21.2 nM |  | MTSP-1 Q38H/I41S/D60bT/S90T/F97D/ins97aV/T98P/F99L/C122S/S127N/I136F/Q192G/D217Q (enzyme) VVGGTDADEGEWPWQVSLHALGHGHSCGASLISPNWLVSAAHCYIDTRGFRYSDPTQWTAFLGLHDQSQRSAPGVQERRLKRIITHPFFNDDVPLDYDIALLELEKPAEYSSMVRPISLPDANHVFPAGKAFWVTGWGHTQYGGTGALILQKGEIRVINQTTCENLLPQQITPRMMCVGFLSGGVDSCGGDSGGPLSSVEADGRIFQAGVVSWGQGCAQRNKPGVYTRLPLFRDWIKENTGV
3.07 nM |  | MTSP-1 Q38H/I41S/D60bF/F60eT/ins97aV/F97D/T98P/F99L/C122S/H143Q/G151N/Q175L/Q192G (enzyme) VVGGTDADEGEWPWQVSLHALGHGHSCGASLISPNWLVSAAHCYIDFRGTRYSDPTQWTAFLGLHDQSQRSAPGVQERRLKRIISHPFFNDDVPLDYDIALLELEKPAEYSSMVRPISLPDASHVFPAGKAIWVTGWGQTQYGGTNALILQKGEIRVINQTTCENLLPQLITPRMMCVGFLSGGVDSCGGDSGGPLSSVEADGRIFQAGVVSWGDGCAQRNKPGVYTRLPLFRDWIKENTGV
50 nM |  | MTSP-1 L33M/Q38H/I41A/D60bA/ins97aV/F97D/T98P/F99L/C122S/Q192G/D217N (enzyme) VVGGTDADEGEWPWQVSMHALGHGHACGASLISPNWLVSAAHCYIDARGFRYSDPTQWTAFLGLHDQSQRSAPGVQERRLKRIISHPFFNDDVPLDYDIALLELEKPAEYSSMVRPISLPDASHVFPAGKAIWVTGWGHTQYGGTGALILQKGEIRVINQTTCENLLPQQITPRMMCVGFLSGGVDSCGGDSGGPLSSVEADGRIFQAGVVSWGNGCAQRNKPGVYTRLPLFRDWIKENTGV
4.22 nM |  | MTSP-1 Q38H/I41S/D60bA/Y60gG/ins97aV/F97D/T98P/F99L/C122S/H143T/G151N/Q175L/Q192A (enzyme) VVGGTDADEGEWPWQVSLHALGHGHSCGASLISPNWLVSAAHCYIDARGFRGSDPTQWTAFLGLHDQSQRSAPGVQERRLKRIISHPFFNDDVPLDYDIALLELEKPAEYSSMVRPISLPDASHVFPAGKAIWVTGWGTTQYGGTNALILQKGEIRVINQTTCENLLPQLITPRMMCVGFLSGGVDSCAGDSGGPLSSVEADGRIFQAGVVSWGDGCAQRNKPGVYTRLPLFRDWIKENTGV
1.97 nM |  | MTSP-1 Q38H/I41S/D60bY/D96Y/ins97aV/F97D/T98P/F99L/L106M/C122S/I136M/Q192G/Q209L/D217T (enzyme) VVGGTDADEGEWPWQVSLHALGHGHSCGASLISPNWLVSAAHCYIDYRGFRYSDPTQWTAFLGLHDQSQRSAPGVQERRLKRIISHPFFNYDVPLDYDIALMELEKPAEYSSMVRPISLPDASHVFPAGKAMWVTGWGHTQYGGTGALILQKGEIRVINQTTCENLLPQQITPRMMCVGFLSGGVDSCGGDSGGPLSSVEADGRIFLAGVVSWGTGCAQRNKPGVYTRLPLFRDWIKENTGV
37 nM |  | MTSP-1 Q38H/I41S/D60bT/F93S/ins97aV/F97D/T98P/F99L/C122S/I136L/Q192G/D217A (enzyme) VVGGTDADEGEWPWQVSLHALGHGHSCGASLISPNWLVSAAHCYIDTRGFRYSDPTQWTAFLGLHDQSQRSAPGVQERRLKRIISHPSFNDDVPLDYDIALLELEKPAEYSSMVRPISLPDASHVFPAGKALWVTGWGHTQYGGTGALILQKGEIRVINQTTCENLLPQQITPRMMCVGFLSGGVDSCGGDSGGPLSSVEADGRIFQAGVVSWGAGCAQRNKPGVYTRLPLFRDWIKENTGV
20.6 nM |  | MTSP-1 I41S/D60bH/ins97aV/F97D/T98P/F99L/C122S/I136V/Q192G/D217N (enzyme) VVGGTDADEGEWPWQVSLHALGQGHSCGASLISPNWLVSAAHCYIDHRGFRYSDPTQWTAFLGLHDQSQRSAPGVQERRLKRIISHPFFNDDVPLDYDIALLELEKPAEYSSMVRPISLPDASHVFPAGKAVWVTGWGHTQYGGTGALILQKGEIRVINQTTCENLLPQQITPRMMCVGFLSGGVDSCGGDSGGPLSSVEADGRIFQAGVVSWGNGCAQRNKPGVYTRLPLFRDWIKENTGV
21 nM |  | MTSP-1 Q38H/I41S/D60bT/F60eH/Y60gF/ins97aV/F97D/T98P/F99L/C122S/H143R/G151N/Q175L/Q192S (enzyme) VVGGTDADEGEWPWQVSLHALGHGHSCGASLISPNWLVSAAHCYIDTRGHRFSDPTQWTAFLGLHDQSQRSAPGVQERRLKRIISHPFFNDDVPLDYDIALLELEKPAEYSSMVRPISLPDASHVFPAGKAIWVTGWGRTQYGGTNALILQKGEIRVINQTTCENLLPQLITPRMMCVGFLSGGVDSCSGDSGGPLSSVEADGRIFQAGVVSWGDGCAQRNKPGVYTRLPLFRDWIKENTGV
 | 26.3 nM | MTSP-1 protease domain Q38H/I41S/D60bS/F60eQ/ins97aV/F97D/T98P/F99L/C122S/H143A/G151N/Q175L/Q192G (enzyme) VVGGTDADEGEWPWQVSLHALGHGHSCGASLISPNWLVSAAHCYIDSRGQRYSDPTQWTAFLGLHDQSQRSAPGVQERRLKRIISHPFFNDDVPLDYDIALLELEKPAEYSSMVRPISLPDASHVFPAGKAIWVTGWGATQYGGTNALILQKGEIRVINQTTCENLLPQLITPRMMCVGFLSGGVDSCGGDSGGPLSSVEADGRIFQAGVVSWGDGCAQRNKPGVYTRLPLFRDWIKENTGV
 | 8.5 nM | MTSP-1 protease domain Q38H/I41S/D60bQ/F60eQ/F97D/ins97aV/T98P/F99L/C122S/H143Q/G151Q/Q175L/Q192G (enzyme) VVGGTDADEGEWPWQVSLHALGHGHSCGASLISPNWLVSAAHCYIDQRGQRYSDPTQWTAFLGLHDQSQRSAPGVQERRLKRIISHPFFNDDVPLDYDIALLELEKPAEYSSMVRPISLPDASHVFPAGKAIWVTGWGQTQYGGTQALILQKGEIRVINQTTCENLLPQLITPRMMCVGFLSGGVDSCGGDSGGPLSSVEADGRIFQAGVVSWGDGCAQRNKPGVYTRLPLFRDWIKENTGV
 | 6.69 nM | MTSP-1 protease domain Q38H/I41S/D60bT/F60eT/ins97aV/F97D/T98P/F99L/C122S/H143Q/G151Q/Q175L/Q192G (enzyme) VVGGTDADEGEWPWQVSLHALGHGHSCGASLISPNWLVSAAHCYIDTRGTRYSDPTQWTAFLGLHDQSQRSAPGVQERRLKRIISHPFFNDDVPLDYDIALLELEKPAEYSSMVRPISLPDASHVFPAGKAIWVTGWGQTQYGGTQALILQKGEIRVINQTTCENLLPQLITPRMMCVGFLSGGVDSCGGDSGGPLSSVEADGRIFQAGVVSWGDGCAQRNKPGVYTRLPLFRDWIKENTGV
5.53 nM |  | MTSP-1 Q38H/I41S/D60bT/F60eS/Y60gW/F97D/F99L/C122S/G151H/Q175L/Q192D (enzyme) VVGGTDADEGEWPWQVSLHALGHGHSCGASLISPNWLVSAAHCYIDTRGSRWSDPTQWTAFLGLHDQSQRSAPGVQERRLKRIISHPFFNDDTLDYDIALLELEKPAEYSSMVRPISLPDASHVFPAGKAIWVTGWGHTQYGGTHALILQKGEIRVINQTTCENLLPQLITPRMMCVGFLSGGVDSCDGDSGGPLSSVEADGRIFQAGVVSWGDGCAQRNKPGVYTRLPLFRDWIKENTGV
